Reference: article PMC8304084, “A Concerted Action of UBA5 C-Terminal Unstructured Regions Is Important for Transfer of Activated UFM1 to UFC1” (International Journal of Molecular Sciences, 2021)

Tests used:
Type in all cases: binding
[1] = test system: UBA5 AD^1–330; assay: ITC, UBA5 C-terminus vs UBA5 AD; details: 25 °C, R1-R2-R3^325–404 titrated into AD^1–330 solution
Source text: (§1) To understand how the UBA5 C-terminus participates in the ufmylation cascade, we performed isothermal titration calorimetry (ITC) experiments, in which we titrated UBA5 C-terminal peptides (see Table 1) to the UBA5 AD, UFC1, UFM1 and representative LC3/GABARAP proteins (Figure 2A, Supplementary Figure S2A–D and Table 2).
All proteins and peptides were expressed in E.Coli T7 Express (New England Biolabs GmbH, Frankfurt, Germany) cells in LB or M9 (to obtain ^15N- and ^13C,^15N-labeled polypeptides) media according to the protocol described in [33, 36]. For protein purification, bacterial cell pellets were resuspended in lysis buffer (50 mM Tris-HCl pH = 7.5, 100 mM NaCl, 5% glycerol, 5 mM PIC (protease inhibitor cocktail)) and lysed via sonication (TT13 Sonotrode, 40% amplitude, for 6 × 1 min with a 0.5/0.5-s pulse). Lysates were centrifuged for 45 min at 17,000× g at 4 °C. […] The protein and peptide concentrations were calculated from the UV absorption at 280 nm by Nanodrop spectrophotometer (Thermo Scientific, Langenselbold, Germany).
All ITC experiments were performed at 25 °C using a VP-ITC microcalorimeter (Malvern Panalytical Ltd., Malvern, UK). […] The ITC data were analyzed based on a “one-site” binding model with MicroCal ITC software implemented in Origin 7.0. […]

[2] = molecular target: T1, LC3B (Homo sapiens, UniProt Q9GZQ8); assay: ITC, UBA5 peptides vs LC3B; details: 25 °C, vs LC3B
T1 construct: LC3B, residues 5–120; ubiquitin tag Ub3 (vector pETm60_Ub3) (cleaved yes); made in house; host or cells: E. coli T7 Express
Source text: as §1
All proteins and peptides were expressed in E.Coli T7 Express (New England Biolabs GmbH, Frankfurt, Germany) cells in LB or M9 (to obtain ^15N- and ^13C,^15N-labeled polypeptides) media according to the protocol described in [33, 36]. For protein purification, bacterial cell pellets were resuspended in lysis buffer (50 mM Tris-HCl pH = 7.5, 100 mM NaCl, 5% glycerol, 5 mM PIC (protease inhibitor cocktail)) and lysed via sonication (TT13 Sonotrode, 40% amplitude, for 6 × 1 min with a 0.5/0.5-s pulse). Lysates were centrifuged for 45 min at 17,000× g at 4 °C. Supernatants were loaded onto a His Trap Fast Flow 5 mL column (GE Healthcare, München, Germany) equilibrated in loading buffer (50 mM Tris-HCl pH = 8.0, 250 mM NaCl, 1% glycerol, 20 mM imidazole). The column was washed with loading buffer for 5–10 CV and protein was eluted with elution buffer (50 mM Tris-HCl pH = 8, 250 mM NaCl, 1% glycerol, 400 mM imidazole). Simultaneous TEV cleavage (1 mg TEV protease was added to 100 mg peptides/proteins) and buffer exchange to loading buffer via dialysis was performed over night at 4 °C. After reverse IMAC, proteins were concentrated with conical concentrators (Millipore Merck, Darmstadt, Germany) and loaded on a Superdex 10/60 75 or 200 column (GE Healthcare, München, Germany) for further purification and equilibration with ITC/NMR buffer (25 mM HEPES pH = 7.5, 100 mM NaCl). For structural NMR spectroscopy, buffer containing 50 mM Tris-HCl pH = 7.5, 100 mM NaCl was used. Prior to NMR experiments, TCEP and protease inhibitors cocktail were added to the samples to final concentrations 1 and 5 mM, respectively. Purified peptides and protein were concentrated and stored at −80 °C. The protein and peptide concentrations were calculated from the UV absorption at 280 nm by Nanodrop spectrophotometer (Thermo Scientific, Langenselbold, Germany).
All ITC experiments were performed at 25 °C using a VP-ITC microcalorimeter (Malvern Panalytical Ltd., Malvern, UK). Peptides in concentration of ~400 µM were titrated into 20–25 µM solutions of corresponding binding partner at a stirring speed of 307 rpm. The raw data were corrected on the dilution heat of peptides obtained in independent experiment (titration of the peptide in syringe into the ITC/NMR buffer in the measuring cell). Pre-titration delay was set to 180 s, interval between titration steps was experimentally adjusted to avoid kinetic contribution to the observed heat effects and set to 200 s. A single ITC profile was collected for each type of interaction. The ITC data were analyzed based on a “one-site” binding model with MicroCal ITC software implemented in Origin 7.0.

[3] = molecular target: T2, UFC1 (Homo sapiens, UniProt Q9Y3C8); assay: NMR titration with UFC1; details: [15N,1H] TROSY-HSQC, 25 °C
T2 construct: Full length UFC1, residues 1–167; modified ubiquitin tag (Ub19) with TEV site (N, cleaved yes); made in house; host or cells: E. coli T7 Express
T2 sequence (Q9Y3C8 1-167): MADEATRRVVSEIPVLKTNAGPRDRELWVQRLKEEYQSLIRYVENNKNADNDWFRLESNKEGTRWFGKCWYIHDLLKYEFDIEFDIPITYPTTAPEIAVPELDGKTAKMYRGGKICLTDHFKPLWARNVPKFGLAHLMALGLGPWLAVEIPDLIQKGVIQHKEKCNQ
Protocol: To understand the role of the UBA5 C-terminal region in coordination of the binding events reported above on the molecular level, we performed NMR titration experiments. […] It seems, that these UBA5 residues form additional interactions with UFC1.
All NMR experiments were performed at a sample temperature of 25 °C on Bruker 600, 700, 800, 900, and 950 MHz spectrometers equipped with cryogenic probes, and a 500 MHz spectrometer equipped with a room-temperature triple-resonance probe. All NMR spectra were analyzed with the Sparky 3.114 software (University of California, San Francisco, USA). For NMR titration experiments, the non-labeled UBA5 peptides were titrated to 100 µM ^13C,^15N-labeled UFC1 to a final molar ratio of 1:8 (UFC1:UBA5 peptide). Conversely, 100 µM ^13C,^15N-labeled UBA5 peptides were titrated with non-labeled UFC1 to a final molar ratio 1:4 (UBA5 peptide:UFC1). 2D ^1H-^15N correlation spectra ([^15N,^1H] TROSY-HSQC) were recorded at each titration point. The same types of spectra were recorded to estimate binding of ^13C,^15N-labeled UFC1 (75 µM) to non-labeled UBA5, UBA5~UFM1 and UFM1 at 1:2 molar ratios. CSP values, Δδ, were calculated for each individual amide group using the formula Δδ = [(ΔδN/5)^2 + Δδ^2HN)]^1/2.

[4] = molecular target: T3, GABARAPL2 (Homo sapiens, UniProt P60520); assay: NMR titration with GABARAPL2; details: NMR titration of 15N-labeled R1-R2-R3^325–404 with GABARAPL2, 25 °C
T3 construct: modified ubiquitin tag (Ub19) with TEV site (N, cleaved yes); made in house; host or cells: E. coli T7 Express
T3 sequence (P60520 3-116): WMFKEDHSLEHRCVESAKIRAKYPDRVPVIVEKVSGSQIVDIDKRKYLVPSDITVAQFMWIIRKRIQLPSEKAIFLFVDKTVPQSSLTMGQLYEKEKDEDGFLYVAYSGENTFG

**Q.** “R1-R2-R3^325–404: UBA5 C-terminal part, residues 325–404 (recombinant, E. coli)” was tested. Which “interaction with UBA5 AD” value [1] did it give?
**A.** does not interact with the UBA5 AD

**Q.** What about the “interaction with UBA5 AD” value ([1]; listed as R1‐R2‐R3325–404) of the same substance?
**A.** No interactions

**Q.** And the ΔG [2]?
**A.** -7.33 kcal/mol

**Q.** What about the ΔS [2] of the same substance?
**A.** 8.86 cal mol^−1 K^−1

**Q.** And the “−T*ΔS” value [2]?
**A.** -2.64 kcal/mol

**Q.** What about the “KA*10^−6” value ([2]; value is KA × 10^−6, ± = fitting error) of the same substance?
**A.** 0.24 ± 0.09 M^−1

**Q.** What about the “interaction with UFC1 (in words)” value [3] of the same substance?
**A.** mediated mostly by the UBA5 residues 386–404

**Q.** What about the “interaction with GABARAPL2 (in words)” value [4] of the same substance?
**A.** GABARAPL2 binds first to the LIR/UFIM region, and after saturation of this binding site, GABARAPL2 interacts with additional sites within the UBA5 C-terminus
